Biological target: HLA-A*02:01 (Homo sapiens, UniProt P04439, D140Y/D185E/D98H/E176V/E277Q/G131W/G231S/I119V/I121R/I166T/I218V/L300P/L318F/N151K/N90K/P208A/P217A/Q86G/Q94H/R138H/R169H/T345S)
Experiment: MHC binding assay: UV-ligand exchange with beta2m ELISA (peptide exchange yield)
Conditions: binding to HLA-A*02:01
Outline: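 Peptide-MHC complexes formed by UV-ligand exchange, a UV-cleavable peptide being replaced by the candidate peptide. Exchange products diluted 100-fold, captured on streptavidin-coated plates for 1h at 37° C, then detected with 2 ug/ml HRP anti-β2m (1h, 37° C) and TMB, absorbance 450 nm; value is exchange yield.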

Substance | Peptide exchange (MHC class I binding score, peptide exchange yield)
553 (SLLNQDLHWSL; listed as Homo sapiens) [compound 553] | “++++” (≥75% = ++++)
314 (ALIAEGIALV; listed as Homo sapiens) [compound 314] | “+++” (≥50 = +++)
230 (ILVDWLVEV; listed as Homo sapiens) [compound 230] | “+” (≥10% = +)
289 (VLLEIEDLQV; listed as Homo sapiens) [compound 289] | “++++” (≥75% = ++++)
408 (VLDDSIYLV; listed as Homo sapiens) [compound 408] | “++” (≥20% = ++)
160 (FLFDEEIEQI; listed as Homo sapiens) [compound 160] | “+++” (≥50 = +++)
266 (KITDTLIHL; listed as Homo sapiens) [compound 266] | “+++” (≥50 = +++)
393 (GLLDTQTSQVLTA; listed as Homo sapiens) [compound 393] | “++” (≥20% = ++)
73 (NIFDLQIYV; listed as Homo sapiens) [compound 73] | “+++” (≥50 = +++)
588 (SLLPLSHLV; listed as Homo sapiens) [compound 588] | “+++” (≥50 = +++)
367 (SLQNHNHQL; listed as Homo sapiens) [compound 367] | “+++” (≥50 = +++)
300 (ALLGQTFSL; listed as Homo sapiens) [compound 300] | “+++” (≥50 = +++)
270 (LLLDEEGTFSL; listed as Homo sapiens) [compound 270] | “++” (≥20% = ++)
231 (FLSPQQPPLLL; listed as Homo sapiens) [compound 231] | “++” (≥20% = ++)
282 (LLADVVPTT; listed as Homo sapiens) [compound 282] | “+++” (≥50 = +++)
13 (YLMDESLNL; listed as Homo sapiens) [compound 13] | “+++” (≥50 = +++)
509 (FLFDTKPLIV; listed as Homo sapiens) [compound 509] | “+++” (≥50 = +++)
18 (YLVAKLVEV; listed as Homo sapiens) [compound 18] | “++” (≥20% = ++)
50 (SLSELEALM; listed as Homo sapiens) [compound 50] | “+++” (≥50 = +++)
198 (KTINKVPTV; listed as Homo sapiens) [compound 198] | “+++” (≥50 = +++)
606 (ALWETEVYI; listed as Homo sapiens) [compound 606] | “+++” (≥50 = +++)

Substance | Peptide exchange (MHC class I binding score, peptide exchange yield)
333 (FLPDANSSV; listed as Homo sapiens) [compound 333] | “++” (≥20% = ++)
359 (YLLPESVDL; listed as Homo sapiens) [compound 359] | “+++” (≥50 = +++)
550 (FLYDEIEAEVNL; listed as Homo sapiens) [compound 550] | “+++” (≥50 = +++)
392 (ALLHPQGFEV; listed as Homo sapiens) [compound 392] | “++” (≥20% = ++)
352 (SLLELLHIYV; listed as Homo sapiens) [compound 352] | “+++” (≥50 = +++)
560 (ALWDIETGQQTTT; listed as Homo sapiens) [compound 560] | “+++” (≥50 = +++)
459 (ALITEVVRL; listed as Homo sapiens) [compound 459] | “++” (≥20% = ++)
341 (SQIALNEKLVNL; listed as Homo sapiens) [compound 341] | “+++” (≥50 = +++)
60 (SLTIDGIYYV; listed as Homo sapiens) [compound 60] | “++++” (≥75% = ++++)
577 (VMFEDGVLMRL; listed as Homo sapiens) [compound 577] | “+++” (≥50 = +++)
556 (FLTDLEDLTL; listed as Homo sapiens) [compound 556] | “+++” (≥50 = +++)
397 (YLFGERLLEC; listed as Homo sapiens) [compound 397] | “+++” (≥50 = +++)
45 (SLWQDIPDV; listed as Homo sapiens) [compound 45] | “+++” (≥50 = +++)
159 (GLVGNPLPSV; listed as Homo sapiens) [compound 159] | “++++” (≥75% = ++++)
92 (YLIPFTGIVGL; listed as Homo sapiens) [compound 92] | “++” (≥20% = ++)
467 (FLAKDFNFL; listed as Homo sapiens) [compound 467] | “+++” (≥50 = +++)
518 (KLNAEVACV; listed as Homo sapiens) [compound 518] | “+++” (≥50 = +++)
460 (AMLEKNYKL; listed as Homo sapiens) [compound 460] | “++++” (≥75% = ++++)
21 (VLDELDMEL; listed as Homo sapiens) [compound 21] | “++” (≥20% = ++)
502 (RLLAQVPGL; listed as Homo sapiens) [compound 502] | “+++” (≥50 = +++)
426 (RLADKSVLV; listed as Homo sapiens) [compound 426] | “+++” (≥50 = +++)

Substance | Peptide exchange (MHC class I binding score, peptide exchange yield)
200 (LLFGSVQEV; listed as Homo sapiens) [compound 200] | “+++” (≥50 = +++)
356 (KLLGKLPEL; listed as Homo sapiens) [compound 356] | “+++” (≥50 = +++)
138 (YQYPRAILSV; listed as Homo sapiens) [compound 138] | “+++” (≥50 = +++)
468 (YLRSVGDGETV; listed as Homo sapiens) [compound 468] | “+++” (≥50 = +++)
377 (FLLDSSASV; listed as Homo sapiens) [compound 377] | “++” (≥20% = ++)
191 (LLQEGQALEYV; listed as Homo sapiens) [compound 191] | “++” (≥20% = ++)
89 (YILPTETIYV; listed as Homo sapiens) [compound 89] | “++++” (≥75% = ++++)
208 (KISPVTFSV; listed as Homo sapiens) [compound 208] | “+++” (≥50 = +++)
71 (GILARIASV; listed as Homo sapiens) [compound 71] | “+++” (≥50 = +++)
277 (LLPPLESLATV; listed as Homo sapiens) [compound 277] | “++” (≥20% = ++)
54 (SLLEQGKEPWMV; listed as Homo sapiens) [compound 54] | “+++” (≥50 = +++)
320 (KMFEFVEPLL; listed as Homo sapiens) [compound 320] | “++++” (≥75% = ++++)
155 (RVANLHFPSV; listed as Homo sapiens) [compound 155] | “+++” (≥50 = +++)
331 (KVDTVWVNV; listed as Homo sapiens) [compound 331] | “+++” (≥50 = +++)
522 (TLWYRSPEV; listed as Homo sapiens) [compound 522] | “++” (≥20% = ++)
295 (VLDRESPNV; listed as Homo sapiens) [compound 295] | “+++” (≥50 = +++)
139 (SVMEVNSGIYRV; listed as Homo sapiens) [compound 139] | “+++” (≥50 = +++)
176 (YLMEGSYNKVFL; listed as Homo sapiens) [compound 176] | “++” (≥20% = ++)
583 (ILANDGVLLAA; listed as Homo sapiens) [compound 583] | “+++” (≥50 = +++)
